Laboratory results from paper PMC10912764.

Assays:
[1] = molecular target: amyloid-β peptide Aβ (1–42) (UniProt P05067)
[2] = molecular target: amyloid-β peptide Aβ (1–42) (UniProt P05067); remark: listed apart in the source

Sequence of E. coli CsgA protein with a C-terminal 6× His tag (P28307 21-151): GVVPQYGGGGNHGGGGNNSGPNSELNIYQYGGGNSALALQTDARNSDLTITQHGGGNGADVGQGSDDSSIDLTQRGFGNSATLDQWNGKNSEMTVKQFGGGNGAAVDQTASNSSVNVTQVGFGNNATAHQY

## E. coli CsgA protein with a C-terminal 6× His tag (from UniProt P28307 21-151) (natural protein)
[1]
  inhibition of Aβ aggregation (ThT fluorescence; 75 µM Aβ with 10 µM CsgA), as given in the legend: 47%
[2]
  inhibition of Aβ aggregation (ThT fluorescence; 75 µM Aβ with 10 µM CsgA, excess Aβ 7.5:1): 43%
  lag phase of Aβ aggregation (ThT) with CsgA; approximately 150 h without CsgA: 175 h
